This assay addresses bovine thrombin (bovine) (UniProt P00735).
“Suc-Tyr-Glu-Pro-Ile-Pip-Glu-Glu-Ala-Cha-D-Glu-OH (peptide)” had a Fibrin Clot Inhibition of 0.88. The substance “Suc-Tyr-Glu-Pro-Ile-Azd-Glu-Glu-Ala-Cha-D-Glu-OH (peptide)” registered a Fibrin Clot Inhibition of 0.38. On to “Suc-Tyr-Glu-Pro-Ile-Tiq-Glu-Glu-Ala-Cha-D-Glu-OH (peptide)”, for which the Fibrin Clot Inhibition worked out at 0.63. The substance “Suc-Tyr-Glu-Tiq-Ile-Pro-Glu-Glu-Ala-Cha-D-Glu-OH (peptide)” came in with a Fibrin Clot Inhibition of 0.82.

The substance “Suc-Tyr-Glu-Pip-Ile-Pro-Glu-Glu-Ala-Cha-D-Glu-OH (peptide)” came in with a Fibrin Clot Inhibition of 1.9. For the substance “Suc-Tyr-Glu-Azd-Ile-Pro-Glu-Glu-Ala-Cha-D-Glu-OH (peptide)”, the Fibrin Clot Inhibition was found to be 0.51.

The values are drawn from patent US5232912.
